Measurements as given in publication PMC13070007 (2025).

What was measured:
Assay in all cases: SPR
KFNM = molecular target: KFNM
28K30K32R = molecular target: 28K30K32R
30K32R113R = molecular target: 30K32R113R
30K32R56G = molecular target: 30K32R56G

Binder	Kd (KFNM)	Kd (28K30K32R)	Kd (30K32R113R)	Kd (30K32R56G)
TRBC1 protein (recombinant) (natural protein) DLNKVFPPEVAVFEPSEAEISHTQKATLVCLATGFFPDHVELSWWVNGKEVHSGVSTDPQPLKEQPALNDSRYCLSSRLRVSATFWQNPRNHFRCQVQFYGLSENDEWTQDRAKPVTQIVSAEAWGRADCGFTSVSYQQGVLSA	173 nM	952 nM		
TRBC2 protein (recombinant) (natural protein) DLKNVFPPKVAVFEPSEAEISHTQKATLVCLATGFYPDHVELSWWVNGKEVHSGVSTDPQPLKEQPALNDSRYCLSSRLRVSATFWQNPRNHFRCQVQFYGLSENDEWTQDRAKPVTQIVSAEAWGRADCGFTSESYQQGVLSA	61 nM	30 nM	41 nM	46 nM
